# Earlier results as cited in paper PMC3433420.
# Read-outs that look alike come from different tables or passages of the source.
# Key:
# Details in all cases: cited from earlier work
# [1] = molecular target: SYK-NC (Homo sapiens) (UniProt P43405)
# [2] = molecular target: SLA (Homo sapiens) (UniProt Q13239)
# [3] = molecular target: ABL2 (Homo sapiens) (UniProt P42684)
# [4] = molecular target: ABL2 (Homo sapiens) (UniProt P42684); remark: listed apart in the source
# [5] = molecular target: CRK (Homo sapiens) (UniProt P46108)
# CRK (Homo sapiens), sequence (P46108 8-123): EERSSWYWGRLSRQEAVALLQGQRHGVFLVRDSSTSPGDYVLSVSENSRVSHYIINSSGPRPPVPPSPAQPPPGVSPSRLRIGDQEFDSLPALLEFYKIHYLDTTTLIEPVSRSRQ
# [6] = molecular target: PLCG1-NC (Homo sapiens) (UniProt P19174)
# PLCG1-NC (Homo sapiens), sequence (P19174 545-761): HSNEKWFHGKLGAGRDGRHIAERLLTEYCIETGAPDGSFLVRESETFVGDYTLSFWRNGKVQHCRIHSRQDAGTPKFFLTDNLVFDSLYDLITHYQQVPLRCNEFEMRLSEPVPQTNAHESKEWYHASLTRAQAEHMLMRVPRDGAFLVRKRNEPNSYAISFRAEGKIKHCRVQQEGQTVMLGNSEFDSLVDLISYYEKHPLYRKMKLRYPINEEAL
# [7] = molecular target: PIK3R3-NC (Homo sapiens) (UniProt Q92569)
# [8] = molecular target: VAV3 (Homo sapiens) (UniProt Q9UKW4)
# VAV3 (Homo sapiens), sequence (Q9UKW4 667-771): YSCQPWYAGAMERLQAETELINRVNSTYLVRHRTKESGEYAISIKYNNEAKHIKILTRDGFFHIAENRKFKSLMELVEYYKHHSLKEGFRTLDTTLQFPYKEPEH
# [9] = molecular target: RASA1-N (Homo sapiens) (UniProt P20936)
# RASA1-N (Homo sapiens), sequence (P20936 176-446): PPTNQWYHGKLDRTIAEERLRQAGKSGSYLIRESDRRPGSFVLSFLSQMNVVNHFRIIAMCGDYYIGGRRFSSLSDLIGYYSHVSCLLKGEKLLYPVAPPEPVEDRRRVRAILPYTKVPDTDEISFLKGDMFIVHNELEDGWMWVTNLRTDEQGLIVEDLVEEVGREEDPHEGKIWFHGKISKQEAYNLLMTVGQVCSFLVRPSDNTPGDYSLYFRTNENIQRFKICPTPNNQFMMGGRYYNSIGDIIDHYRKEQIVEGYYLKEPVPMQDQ
# [10] = molecular target: RASA1-N (Homo sapiens) (UniProt P20936); remark: listed apart in the source
# [11] = molecular target: VAV1 (Homo sapiens) (UniProt P15498)
# VAV1 (Homo sapiens), sequence (P15498 666-770): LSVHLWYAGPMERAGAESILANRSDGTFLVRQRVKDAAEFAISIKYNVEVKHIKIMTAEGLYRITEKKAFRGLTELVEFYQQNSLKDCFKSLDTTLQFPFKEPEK
# [12] = molecular target: NCK2 (Homo sapiens) (UniProt O43639)
# NCK2 (Homo sapiens), sequence (O43639 280-380): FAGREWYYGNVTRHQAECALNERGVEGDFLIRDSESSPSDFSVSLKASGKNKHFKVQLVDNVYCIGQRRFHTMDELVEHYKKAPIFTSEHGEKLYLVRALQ
# [13] = molecular target: PTPN11-N (Homo sapiens) (UniProt Q06124)
# [14] = molecular target: VAV2 (Homo sapiens) (UniProt P52735)
# VAV2 (Homo sapiens), sequence (P52735 668-772): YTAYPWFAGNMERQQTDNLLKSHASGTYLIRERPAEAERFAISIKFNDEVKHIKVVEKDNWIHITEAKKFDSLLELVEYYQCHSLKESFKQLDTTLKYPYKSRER
# [15] = molecular target: VAV2 (Homo sapiens) (UniProt P52735); remark: listed apart in the source
# [16] = molecular target: CRKL (Homo sapiens) (UniProt P46109)
# CRKL (Homo sapiens), sequence (P46109 9-107): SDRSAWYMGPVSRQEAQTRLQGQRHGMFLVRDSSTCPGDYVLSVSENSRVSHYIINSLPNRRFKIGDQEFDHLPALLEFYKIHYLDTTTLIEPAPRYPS
# [17] = molecular target: PIK3R2-N (Homo sapiens) (UniProt O00459)
# PIK3R2-N (Homo sapiens), sequence (O00459 325-721): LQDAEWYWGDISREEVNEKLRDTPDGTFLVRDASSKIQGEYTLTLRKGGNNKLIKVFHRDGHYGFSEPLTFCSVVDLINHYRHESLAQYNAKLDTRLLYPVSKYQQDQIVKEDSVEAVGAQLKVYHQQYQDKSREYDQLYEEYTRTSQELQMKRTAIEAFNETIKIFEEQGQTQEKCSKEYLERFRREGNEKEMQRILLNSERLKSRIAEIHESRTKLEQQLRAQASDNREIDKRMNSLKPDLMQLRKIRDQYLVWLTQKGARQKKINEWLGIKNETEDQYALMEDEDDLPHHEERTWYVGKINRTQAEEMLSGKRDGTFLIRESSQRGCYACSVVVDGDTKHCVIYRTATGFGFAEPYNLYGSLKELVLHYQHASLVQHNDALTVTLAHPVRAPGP
# [18] = molecular target: PLCG1-C (Homo sapiens) (UniProt P19174)
# PLCG1-C (Homo sapiens), sequence (P19174 545-761): as the sequence (P19174 545-761) above
# [19] = molecular target: SYK-NC (Homo sapiens) (UniProt P43405); remark: listed apart in the source
# [20] = molecular target: GRB7 (Homo sapiens) (UniProt Q14451)
# GRB7 (Homo sapiens), sequence (Q14451 426-532): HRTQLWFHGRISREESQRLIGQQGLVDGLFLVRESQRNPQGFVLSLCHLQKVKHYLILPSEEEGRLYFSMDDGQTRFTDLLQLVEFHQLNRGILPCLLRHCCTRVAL
# [21] = molecular target: PIK3R1-N (Homo sapiens) (UniProt P27986)
# PIK3R1-N (Homo sapiens), sequence (P27986 328-723): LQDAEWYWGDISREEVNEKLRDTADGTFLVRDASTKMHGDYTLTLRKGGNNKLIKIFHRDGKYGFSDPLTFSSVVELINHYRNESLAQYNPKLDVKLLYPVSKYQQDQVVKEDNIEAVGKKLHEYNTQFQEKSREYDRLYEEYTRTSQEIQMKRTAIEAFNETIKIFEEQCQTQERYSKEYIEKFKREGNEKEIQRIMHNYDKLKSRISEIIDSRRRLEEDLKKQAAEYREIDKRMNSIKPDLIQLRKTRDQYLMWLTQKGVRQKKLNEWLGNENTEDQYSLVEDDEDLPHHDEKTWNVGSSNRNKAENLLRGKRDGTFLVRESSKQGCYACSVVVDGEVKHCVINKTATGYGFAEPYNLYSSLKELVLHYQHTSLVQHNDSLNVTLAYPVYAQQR
# [22] = molecular target: SLA (Homo sapiens) (UniProt Q13239); remark: listed apart in the source
# [23] = molecular target: BLK (Homo sapiens) (UniProt P51451)
# BLK (Homo sapiens), sequence (P51451 119-225): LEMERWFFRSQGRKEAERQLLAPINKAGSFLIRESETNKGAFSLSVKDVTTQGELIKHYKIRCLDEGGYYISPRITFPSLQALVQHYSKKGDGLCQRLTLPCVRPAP
# [24] = molecular target: ITK (Homo sapiens) (UniProt Q08881)
# ITK (Homo sapiens), sequence (Q08881 234-343): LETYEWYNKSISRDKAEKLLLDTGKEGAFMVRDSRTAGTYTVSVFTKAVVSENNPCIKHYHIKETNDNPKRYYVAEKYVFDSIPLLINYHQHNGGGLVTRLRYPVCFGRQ
# [25] = molecular target: ABL2 (Homo sapiens) (UniProt P42684); remark: listed apart in the source
# [26] = molecular target: CRK (Homo sapiens) (UniProt P46108); remark: listed apart in the source
# [27] = molecular target: PLCG1-NC (Homo sapiens) (UniProt P19174); remark: listed apart in the source
# [28] = molecular target: PTPN11-NC (Homo sapiens) (UniProt Q06124)
# [29] = molecular target: PLCG2-NC (Homo sapiens) (UniProt P16885)
# PLCG2-NC (Homo sapiens), sequence (P16885 527-740): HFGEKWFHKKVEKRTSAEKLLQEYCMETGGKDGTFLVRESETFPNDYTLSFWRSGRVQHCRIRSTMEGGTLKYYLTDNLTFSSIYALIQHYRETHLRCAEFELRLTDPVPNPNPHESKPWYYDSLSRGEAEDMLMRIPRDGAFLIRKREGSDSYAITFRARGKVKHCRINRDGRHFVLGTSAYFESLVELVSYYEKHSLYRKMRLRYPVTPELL
# [30] = molecular target: PIK3R3-NC (Homo sapiens) (UniProt Q92569); remark: listed apart in the source
# [31] = molecular target: LYN (Homo sapiens) (UniProt P07948)
# LYN (Homo sapiens), sequence (P07948 124-231): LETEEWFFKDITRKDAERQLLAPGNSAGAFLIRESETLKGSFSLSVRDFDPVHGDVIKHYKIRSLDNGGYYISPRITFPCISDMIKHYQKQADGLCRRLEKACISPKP
# [32] = molecular target: FGR (Homo sapiens) (UniProt P09769)
# [33] = molecular target: RASA1-N (Homo sapiens) (UniProt P20936); remark: listed apart in the source
# [34] = molecular target: TENC1 (Homo sapiens) (UniProt Q63HR2)
# TENC1 (Homo sapiens), sequence (Q63HR2 1135-1252): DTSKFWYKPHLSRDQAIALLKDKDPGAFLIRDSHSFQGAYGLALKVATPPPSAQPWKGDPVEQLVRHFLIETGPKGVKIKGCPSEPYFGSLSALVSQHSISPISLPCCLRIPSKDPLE
# [35] = molecular target: VAV1 (Homo sapiens) (UniProt P15498); remark: listed apart in the source
# [36] = molecular target: SH2D2A (Homo sapiens) (UniProt Q9NP31)
# SH2D2A (Homo sapiens), sequence (Q9NP31 90-191): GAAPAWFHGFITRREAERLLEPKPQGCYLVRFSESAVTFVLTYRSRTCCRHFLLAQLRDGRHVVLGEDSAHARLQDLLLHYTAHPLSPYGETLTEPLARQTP
# [37] = molecular target: GRB2 (Homo sapiens) (UniProt P62993)
# GRB2 (Homo sapiens), sequence (P62993 55-157): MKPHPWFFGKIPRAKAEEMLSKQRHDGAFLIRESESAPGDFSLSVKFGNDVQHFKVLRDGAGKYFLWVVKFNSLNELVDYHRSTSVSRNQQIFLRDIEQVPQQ
# [38] = molecular target: PIK3R1-NC (Homo sapiens) (UniProt P27986)
# PIK3R1-NC (Homo sapiens), sequence (P27986 328-723): as the sequence (P27986 328-723) above
# [39] = molecular target: ABL1 (Homo sapiens) (UniProt P00519)
# ABL1 (Homo sapiens), sequence (P00519 122-222): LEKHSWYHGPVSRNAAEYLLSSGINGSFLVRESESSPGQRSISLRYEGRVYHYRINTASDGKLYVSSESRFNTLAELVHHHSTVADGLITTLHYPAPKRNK
# [40] = molecular target: SH3BP2 (Homo sapiens) (UniProt P78314)
# SH3BP2 (Homo sapiens), sequence (P78314 452-560): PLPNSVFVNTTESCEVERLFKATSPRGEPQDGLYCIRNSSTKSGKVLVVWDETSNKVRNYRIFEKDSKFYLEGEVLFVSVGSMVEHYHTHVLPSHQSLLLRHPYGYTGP
# [41] = molecular target: NCK2 (Homo sapiens) (UniProt O43639); remark: listed apart in the source
# [42] = molecular target: PIK3R3-N (Homo sapiens) (UniProt Q92569)
# [43] = molecular target: TNS3 (Homo sapiens) (UniProt Q68CZ2)
# TNS3 (Homo sapiens), sequence (Q68CZ2 1167-1287): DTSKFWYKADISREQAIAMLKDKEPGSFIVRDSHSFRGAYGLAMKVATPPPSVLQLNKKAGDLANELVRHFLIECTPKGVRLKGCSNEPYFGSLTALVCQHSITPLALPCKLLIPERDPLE
# [44] = molecular target: SRC (Homo sapiens) (UniProt P12931)
# [45] = molecular target: PIK3R2-NC (Homo sapiens) (UniProt O00459)
# [46] = molecular target: BCAR3 (Homo sapiens) (UniProt O75815)
# [47] = molecular target: VAV2 (Homo sapiens) (UniProt P52735); remark: listed apart in the source
# [48] = molecular target: BMX (Homo sapiens) (UniProt P51813)
# BMX (Homo sapiens), sequence (P51813 291-397): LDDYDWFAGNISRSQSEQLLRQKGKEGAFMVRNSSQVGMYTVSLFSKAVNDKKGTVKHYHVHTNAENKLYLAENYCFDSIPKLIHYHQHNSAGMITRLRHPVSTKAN
# [49] = molecular target: CRKL (Homo sapiens) (UniProt P46109); remark: listed apart in the source
# [50] = molecular target: GRAP2 (Homo sapiens) (UniProt O75791)
# [51] = molecular target: HCK (Homo sapiens) (UniProt P08631)
# [52] = molecular target: PIK3R2-N (Homo sapiens) (UniProt O00459); remark: listed apart in the source
# [53] = molecular target: PIK3R3-C (Homo sapiens) (UniProt Q92569)
# [54] = molecular target: PLCG1-C (Homo sapiens) (UniProt P19174); remark: listed apart in the source
# ABL2 (Homo sapiens), sequence (P42684 168-268): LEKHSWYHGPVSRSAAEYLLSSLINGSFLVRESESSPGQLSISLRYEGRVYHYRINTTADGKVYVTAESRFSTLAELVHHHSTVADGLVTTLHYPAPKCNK
# SLA (Homo sapiens), sequence (Q13239 79-180): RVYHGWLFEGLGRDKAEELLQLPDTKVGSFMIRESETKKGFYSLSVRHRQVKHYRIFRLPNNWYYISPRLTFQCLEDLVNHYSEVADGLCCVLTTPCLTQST
substance,measurement,setting,value
…pYLNPVEENd,apparent Kd (screen),[1],2000 nM
same,apparent Kd (screen),[2],2000 nM
same,apparent Kd (screen),[3],283 nM
same,apparent Kd (screen),[4],316 nM
same,apparent Kd (screen),[5],2000 nM
same,apparent Kd (screen),[6],2000 nM
same,apparent Kd (screen),[7],2000 nM
same,apparent Kd (screen),[8],2000 nM
same,apparent Kd (screen),[9],983 nM
same,apparent Kd (screen),[10],2000 nM
same,apparent Kd (screen),[11],2000 nM
same,apparent Kd (screen),[12],2000 nM
same,apparent Kd (screen),[13],2000 nM
same,apparent Kd (screen),[14],100 nM
same,apparent Kd (screen),[15],2000 nM
same,apparent Kd (screen),[16],2000 nM
same,apparent Kd (screen),[17],2000 nM
same,apparent Kd (screen),[18],2000 nM
…pYVNQPDVR,apparent Kd (screen),[19],973 nM
same,apparent Kd (screen),[20],2000 nM
same,apparent Kd (screen),[21],508 nM
same,apparent Kd (screen),[22],2000 nM
same,apparent Kd (screen),[23],2000 nM
same,apparent Kd (screen),[24],1510 nM
same,apparent Kd (screen),[25],71 nM
same,apparent Kd (screen),[26],2000 nM
same,apparent Kd (screen),[27],2000 nM
same,apparent Kd (screen),[28],877 nM
same,apparent Kd (screen),[29],1280 nM
same,apparent Kd (screen),[30],304 nM
same,apparent Kd (screen),[31],2000 nM
same,apparent Kd (screen),[32],454 nM
same,apparent Kd (screen),[33],675 nM
same,apparent Kd (screen),[34],565 nM
same,apparent Kd (screen),[35],206 nM
same,apparent Kd (screen),[36],980 nM
same,apparent Kd (screen),[37],76 nM
same,apparent Kd (screen),[38],741 nM
same,apparent Kd (screen),[39],157 nM
same,apparent Kd (screen),[40],406 nM
same,apparent Kd (screen),[41],777 nM
same,apparent Kd (screen),[42],395 nM
same,apparent Kd (screen),[43],765 nM
same,apparent Kd (screen),[44],2000 nM
same,apparent Kd (screen),[45],776 nM
same,apparent Kd (screen),[46],1000 nM
same,apparent Kd (screen),[47],226 nM
same,apparent Kd (screen),[48],520 nM
same,apparent Kd (screen),[49],2000 nM
same,apparent Kd (screen),[50],958 nM
same,apparent Kd (screen),[51],2000 nM
same,apparent Kd (screen),[52],281 nM
same,apparent Kd (screen),[53],1220 nM
same,apparent Kd (screen),[54],1930 nM
